Source: PMC3234246, “HIV-1 Capsid-Cyclophilin Interactions Determine Nuclear Import Pathway, Integration Targeting and Replication Efficiency” (PLoS Pathogens, 2011)

Molecular target: T1, cyclophilin A (CypA), human (human, UniProt P62937 1-165)
T1 construct: human cyclophilin A (peptidyl-prolyl cis-trans isomerase A)
Assay: ITC; recombinant CypA or Nup358Cyp against recombinant CA^NTD, without cyclosporine; done as described in ref. 25
Conditions: both partners purified

B1: SIVmac capsid N-terminal domain (CA^NTD) (domain or fragment)
chain: not shown
modifications: No candidate fits. The accession (SIVmac Gag, isolate Mm142-83) is from memory because the isolate is not printed. Limits are CA residues 1-144, matching HIV-1 CA 1-146 (pdb 1M9D entity 2). Check …
Kd: ~800 µM
